Laboratory results: patent US20260242735A1 (UNIVERSIT T BASEL, published 2026)

Columns and labels:
human CD33 H285A = human CD33 H285A (human, UniProt P20138 18-364); test: flow cytometry, HEK293-T, alanine scan;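 also: transiently transfected HEK293-T cells expressing single alanine mutants of human CD33 (alanine residues changed to serine), antibody binding fluorescence minus background, relative to wild type CD33, mean of duplicates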
Experimental: (§1) An alanine scan on human CD33 was performed to the determine the residues on CD33 that are involved in binding to the antibodies investigated. […] Briefly, a mutation library of CD33 was created by high-throughput, site-directed mutagenesis. Each residue was individually mutated to alanine, with alanine codons mutated to serine. The mutant library was arrayed in 384-well microplates and transiently transfected into HEK293-T. Following transfection, cells were incubated with the indicated antibodies (IgG or Fab) at concentrations pre-determined using an independent immunofluorescence titration curve on wild type CD33. […] Binding of each antibody to each mutant clone was determined in duplicates. For each point, background fluorescence was subtracted from the raw data, which were then normalized to antibody reactivity with wild type CD33.
(§2) Critical residues for antibody binding (outlined in dark grey) were residues whose mutations led to a binding of the test Abs of less than 20%. Additional secondary residues (outlined in light grey) were identified that led to a binding of the test Abs of between 20 and 40% as compared to the wild type CD33.

human CD33 N297A = human CD33 N297A (human, UniProt P20138 18-364); test: flow cytometry, HEK293-T, alanine scan;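 also: transiently transfected HEK293-T cells expressing single alanine mutants of human CD33 (alanine residues changed to serine), antibody binding fluorescence minus background, relative to wild type CD33, mean of duplicates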
Experimental: as §1, §2

human CD33 S314A = human CD33 S314A (human, UniProt P20138 18-364); test: flow cytometry, HEK293-T, alanine scan;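 also: transiently transfected HEK293-T cells expressing single alanine mutants of human CD33 (alanine residues changed to serine), antibody binding fluorescence minus background, relative to wild type CD33, mean of duplicates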
Experimental: as §1, §2

human CD33 T320A = human CD33 T320A (human, UniProt P20138 18-364); test: flow cytometry, HEK293-T, alanine scan;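 also: transiently transfected HEK293-T cells expressing single alanine mutants of human CD33 (alanine residues changed to serine), antibody binding fluorescence minus background, relative to wild type CD33, mean of duplicates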
Experimental: as §1, §2

human CD33 E321A = human CD33 E321A (human, UniProt P20138 18-364); test: flow cytometry, HEK293-T, alanine scan
Experimental: as §1, §2

human CD33 T322A = human CD33 T322A (human, UniProt P20138 18-364); test: flow cytometry, HEK293-T, alanine scan
Experimental: as §1, §2

human CD33 V332A = human CD33 V332A (human, UniProt P20138 18-364); test: flow cytometry, HEK293-T, alanine scan
Experimental: as §1, §2

human CD33 L338A = human CD33 L338A (human, UniProt P20138 18-364); test: flow cytometry, HEK293-T, alanine scan
Experimental: as §1, §2

human CD33 H339A = human CD33 H339A (human, UniProt P20138 18-364); test: flow cytometry, HEK293-T, alanine scan
Experimental: as §1, §2

human CD33 Y340A = human CD33 Y340A (human, UniProt P20138 18-364); test: flow cytometry, HEK293-T, alanine scan
Experimental: as §1, §2

human CD33 L273A = human CD33 L273A (human, UniProt P20138 18-364); test: flow cytometry, HEK293-T, alanine scan
Experimental: as §1, §2

human CD33 F44V = human CD33 F44V (human, UniProt P20138 18-364); test: flow cytometry on transfected cells, IgG
Experimental: as §1
(§3) Antibodies were screened for binding to the human CD33 variants in IgG format. […] For each mutation, background fluorescence was subtracted from the raw data, which were then normalized to antibody reactivity with wild-type CD33.

human CD33 F44P = human CD33 F44P (human, UniProt P20138 18-364); test: flow cytometry on transfected cells, IgG
Experimental: as §1, §3

human CD33 F44Q = human CD33 F44Q (human, UniProt P20138 18-364); test: flow cytometry on transfected cells, IgG
Experimental: as §1, §3

human CD33 F44D = human CD33 F44D (human, UniProt P20138 18-364); test: flow cytometry on transfected cells, IgG
Experimental: as §1, §3

human CD33 F44E = human CD33 F44E (human, UniProt P20138 18-364); test: flow cytometry on transfected cells, IgG
Experimental: as §1, §3

human CD33 P46I = human CD33 P46I (human, UniProt P20138 18-364); test: flow cytometry on transfected cells, IgG
Experimental: as §1, §3

human CD33 P46F = human CD33 P46F (human, UniProt P20138 18-364); test: flow cytometry on transfected cells, IgG
Experimental: as §1, §3

human CD33 I47S = human CD33 I47S (human, UniProt P20138 18-364); test: flow cytometry on transfected cells, IgG
Experimental: as §1, §3

human CD33 I47V = human CD33 I47V (human, UniProt P20138 18-364); test: flow cytometry on transfected cells, IgG
Experimental: as §1, §3

human CD33 I47N = human CD33 I47N (human, UniProt P20138 18-364); test: flow cytometry on transfected cells, IgG
Experimental: as §1, §3

human CD33 P48T = human CD33 P48T (human, UniProt P20138 18-364); test: flow cytometry on transfected cells, IgG
Experimental: as §1, §3

human CD33 P48L = human CD33 P48L (human, UniProt P20138 18-364); test: flow cytometry on transfected cells, IgG
Experimental: as §1, §3

human CD33 P48Y = human CD33 P48Y (human, UniProt P20138 18-364); test: flow cytometry on transfected cells, IgG
Experimental: as §1, §3

human CD33 P48M = human CD33 P48M (human, UniProt P20138 18-364); test: flow cytometry on transfected cells, IgG
Experimental: as §1, §3

human CD33 P48N = human CD33 P48N (human, UniProt P20138 18-364); test: flow cytometry on transfected cells, IgG
Experimental: as §1, §3

human CD33 Y49Q = human CD33 Y49Q (human, UniProt P20138 18-364); test: flow cytometry on transfected cells, IgG
Experimental: as §1, §3

human CD33 Y49H = human CD33 Y49H (human, UniProt P20138 18-364); test: flow cytometry on transfected cells, IgG
Experimental: as §1, §3

human CD33 Y49G = human CD33 Y49G (human, UniProt P20138 18-364); test: flow cytometry on transfected cells, IgG
Experimental: as §1, §3

human CD33 Y49C = human CD33 Y49C (human, UniProt P20138 18-364); test: flow cytometry on transfected cells, IgG
Experimental: as §1, §3

human CD33 Y49S = human CD33 Y49S (human, UniProt P20138 18-364); test: flow cytometry on transfected cells, IgG
Experimental: as §1, §3

human CD33 Y50V = human CD33 Y50V (human, UniProt P20138 18-364); test: flow cytometry on transfected cells, IgG
Experimental: as §1, §3

human CD33 Y50I = human CD33 Y50I (human, UniProt P20138 18-364); test: flow cytometry on transfected cells, IgG
Experimental: as §1, §3

human CD33 Y50N = human CD33 Y50N (human, UniProt P20138 18-364); test: flow cytometry on transfected cells, IgG
Experimental: as §1, §3

human CD33 Y50H = human CD33 Y50H (human, UniProt P20138 18-364); test: flow cytometry on transfected cells, IgG
Experimental: as §1, §3

human CD33 Y50G = human CD33 Y50G (human, UniProt P20138 18-364); test: flow cytometry on transfected cells, IgG
Experimental: as §1, §3

human CD33 Y50P = human CD33 Y50P (human, UniProt P20138 18-364); test: flow cytometry on transfected cells, IgG
Experimental: as §1, §3

Chain of human CD33 I47V (P20138 18-364 I47V limits assumed): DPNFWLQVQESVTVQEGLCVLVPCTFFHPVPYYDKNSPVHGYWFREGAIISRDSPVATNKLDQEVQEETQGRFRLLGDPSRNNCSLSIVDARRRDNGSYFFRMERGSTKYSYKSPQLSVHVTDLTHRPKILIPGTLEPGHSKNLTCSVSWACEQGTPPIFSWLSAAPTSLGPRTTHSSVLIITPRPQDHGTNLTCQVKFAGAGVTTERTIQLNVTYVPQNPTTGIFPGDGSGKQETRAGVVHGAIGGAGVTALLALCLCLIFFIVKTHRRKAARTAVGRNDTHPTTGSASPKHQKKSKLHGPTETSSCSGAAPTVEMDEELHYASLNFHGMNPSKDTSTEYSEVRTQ
Chain of human CD33 Y340A (P20138 18-364 Y340A limits assumed): as the sequence (P20138 18-364 I47V limits assumed) above, with V30I, Y323A counted along it
Chain of human CD33 N297A (P20138 18-364 N297A limits assumed): as the sequence (P20138 18-364 I47V limits assumed) above, with V30I, N280A counted along it
Chain of human CD33 T322A (P20138 18-364 T322A limits assumed): as the sequence (P20138 18-364 I47V limits assumed) above, with V30I, T305A counted along it
Chain of human CD33 I47S (P20138 18-364 I47S limits assumed): as the sequence (P20138 18-364 I47V limits assumed) above, with V30S counted along it
Chain of human CD33 V332A (P20138 18-364 V332A limits assumed): as the sequence (P20138 18-364 I47V limits assumed) above, with V30I, V315A counted along it
Chain of human CD33 Y50G (P20138 18-364 Y50G limits assumed): as the sequence (P20138 18-364 I47V limits assumed) above, with V30I, Y33G counted along it
Chain of human CD33 E321A (P20138 18-364 E321A limits assumed): as the sequence (P20138 18-364 I47V limits assumed) above, with V30I, E304A counted along it
Chain of human CD33 H339A (P20138 18-364 H339A limits assumed): as the sequence (P20138 18-364 I47V limits assumed) above, with V30I, H322A counted along it
Chain of human CD33 Y49S (P20138 18-364 Y49S limits assumed): as the sequence (P20138 18-364 I47V limits assumed) above, with V30I, Y32S counted along it
Chain of human CD33 F44D (P20138 18-364 F44D limits assumed): as the sequence (P20138 18-364 I47V limits assumed) above, with F27D, V30I counted along it
Chain of human CD33 P48Y (P20138 18-364 P48Y limits assumed): as the sequence (P20138 18-364 I47V limits assumed) above, with V30I, P31Y counted along it
Chain of human CD33 Y50N (P20138 18-364 Y50N limits assumed): as the sequence (P20138 18-364 I47V limits assumed) above, with V30I, Y33N counted along it
Chain of human CD33 P46I (P20138 18-364 P46I limits assumed): as the sequence (P20138 18-364 I47V limits assumed) above, with P29I, V30I counted along it

| Binder | Mean % WT Binding (human CD33 H285A) | Mean % WT Binding (human CD33 N297A) | Mean % WT Binding (human CD33 S314A) | Mean % WT Binding (human CD33 T320A) | Mean % WT Binding (human CD33 E321A) | Mean % WT Binding (human CD33 T322A) | Mean % WT Binding (human CD33 V332A) | Mean % WT Binding (human CD33 L338A) | Mean % WT Binding (human CD33 H339A) | Mean % WT Binding (human CD33 Y340A) | Mean % WT Binding (human CD33 L273A) | Mean % WT Binding (human CD33 F44V) | Mean % WT Binding (human CD33 F44P) | Mean % WT Binding (human CD33 F44Q) | Mean % WT Binding (human CD33 F44D) | Mean % WT Binding (human CD33 F44E) | Mean % WT Binding (human CD33 P46I) | Mean % WT Binding (human CD33 P46F) | Mean % WT Binding (human CD33 I47S) | Mean % WT Binding (human CD33 I47V) | also measured |
| --- | --- | --- | --- | --- | --- | --- | --- | --- | --- | --- | --- | --- | --- | --- | --- | --- | --- | --- | --- | --- | --- |
| Refmab #5 (antibody, V domains shown, The alanine scan used IgG or Fab) VH: QVQLVQSGAEVKKPGASVKVSCKASGYTFTNYDINWVRQAPGQGLEWIGWIYPGDGSTKYNEKFKAKATLTADTSTSTAYMELRSLRSDDTAVYYCASGYEDAMDYWGQGTTVTVSS VL: DIQMTQSPSSLSASVGDRVTINCKASQDINSYLSWFQQKPGKAPKTLIYRANRLVDGVPSRFSGSGSGQDYTLTISSLQPEDFATYYCLQYDEFPLTFGGGTKVEIK | 116 % WT binding | 83.7 % WT binding | 112 % WT binding | 121 % WT binding | 96.2 % WT binding | 100 % WT binding | 71.6 % WT binding | 105 % WT binding | 82.7 % WT binding | 88.6 % WT binding | 102 % WT binding |  |  |  |  |  |  |  |  |  |  |
| Refmab #6 (antibody, V domains shown, The alanine scan used IgG or Fab) VH: QVQLQQPGAEVVKPGASVKMSCKASGYTFTSYYIHWIKQTPGQGLEWVGVIYPGNDDISYNQKFQGKATLTADKSSTTAYMQLSSLTSEDSAVYYCAREVRLRYFDVWGQGTTVTVSS VL: EIVLTQSPGSLAVSPGERVTMSCKSSQSVFFSSSQKNYLAWYQQIPGQSPRLLIYWASTRESGVPDRFTGSGSGTDFTLTISSVQPEDLAIYYCHQYLSSRTFGQGTKLEIK | 103 % WT binding | 95.6 % WT binding | 96.3 % WT binding | 100 % WT binding | 111 % WT binding | 110 % WT binding | 100 % WT binding | 103 % WT binding | 99.3 % WT binding | 101 % WT binding | 104 % WT binding |  |  |  |  |  |  |  |  |  |  |
| Refmab #5 (antibody, human IgG1, V domains shown) VH: QVQLVQSGAEVKKPGASVKVSCKASGYTFTNYDINWVRQAPGQGLEWIGWIYPGDGSTKYNEKFKAKATLTADTSTSTAYMELRSLRSDDTAVYYCASGYEDAMDYWGQGTTVTVSS VL: DIQMTQSPSSLSASVGDRVTINCKASQDINSYLSWFQQKPGKAPKTLIYRANRLVDGVPSRFSGSGSGQDYTLTISSLQPEDFATYYCLQYDEFPLTFGGGTKVEIK |  |  |  |  |  |  |  |  |  |  |  | 97.7 % WT binding | 114 % WT binding | 93.9 % WT binding | 111 % WT binding | 97 % WT binding | 100 % WT binding | 62 % WT binding | 98.2 % WT binding | 104 % WT binding | Mean % WT Binding (human CD33 I47N): 88 % WT binding; Mean % WT Binding (human CD33 P48T): 91.4 % WT binding; Mean % WT Binding (human CD33 P48L): 18.9 % WT binding; Mean % WT Binding (human CD33 P48Y): 1.5 % WT binding; Mean % WT Binding (human CD33 P48M): 31.4 % WT binding; Mean % WT Binding (human CD33 P48N): 4.4 % WT binding; Mean % WT Binding (human CD33 Y49Q): 2.3 % WT binding; Mean % WT Binding (human CD33 Y49H): 2.4 % WT binding; Mean % WT Binding (human CD33 Y49G): 0.8 % WT binding; Mean % WT Binding (human CD33 Y49C): 0.7 % WT binding; Mean % WT Binding (human CD33 Y49S): 0.5 % WT binding; Mean % WT Binding (human CD33 Y50V): 4.2 % WT binding; Mean % WT Binding (human CD33 Y50I): 2.5 % WT binding; Mean % WT Binding (human CD33 Y50N): 3.2 % WT binding; Mean % WT Binding (human CD33 Y50H): 7.1 % WT binding; Mean % WT Binding (human CD33 Y50G): 5 % WT binding; Mean % WT Binding (human CD33 Y50P): 43.4 % WT binding |
| Refmab #6 (antibody, human IgG1, V domains shown) VH: QVQLQQPGAEVVKPGASVKMSCKASGYTFTSYYIHWIKQTPGQGLEWVGVIYPGNDDISYNQKFQGKATLTADKSSTTAYMQLSSLTSEDSAVYYCAREVRLRYFDVWGQGTTVTVSS VL: EIVLTQSPGSLAVSPGERVTMSCKSSQSVFFSSSQKNYLAWYQQIPGQSPRLLIYWASTRESGVPDRFTGSGSGTDFTLTISSVQPEDLAIYYCHQYLSSRTFGQGTKLEIK |  |  |  |  |  |  |  |  |  |  |  | 98.9 % WT binding | 88 % WT binding | 102 % WT binding | 107 % WT binding | 102 % WT binding | 98.5 % WT binding | 92.6 % WT binding | 91 % WT binding | 101 % WT binding | Mean % WT Binding (human CD33 I47N): 96.6 % WT binding; Mean % WT Binding (human CD33 P48T): 92.6 % WT binding; Mean % WT Binding (human CD33 P48L): 104 % WT binding; Mean % WT Binding (human CD33 P48Y): 79.1 % WT binding; Mean % WT Binding (human CD33 P48M): 103 % WT binding; Mean % WT Binding (human CD33 P48N): 98.4 % WT binding; Mean % WT Binding (human CD33 Y49Q): 115 % WT binding; Mean % WT Binding (human CD33 Y49H): 118 % WT binding; Mean % WT Binding (human CD33 Y49G): 121 % WT binding; Mean % WT Binding (human CD33 Y49C): 44.7 % WT binding; Mean % WT Binding (human CD33 Y49S): 102 % WT binding; Mean % WT Binding (human CD33 Y50V): 108 % WT binding; Mean % WT Binding (human CD33 Y50I): 118 % WT binding; Mean % WT Binding (human CD33 Y50N): 108 % WT binding; Mean % WT Binding (human CD33 Y50H): 92.2 % WT binding; Mean % WT Binding (human CD33 Y50G): 115 % WT binding; Mean % WT Binding (human CD33 Y50P): 98.1 % WT binding |
